Assay results published in patent US8889621B2, “Inhibiting binding of FGF23 to the binary FGFR-Klotho complex for the treatment of hypophosphatemia” (New York University, priority 2009, dated 2014).
Entries after “also recorded” stand apart in the source; their conditions may differ.

T1: FGFR1c ectodomain (Homo sapiens, UniProt P11362)
T1 construct: made in house; host or cells: E. coli
T1 sequence (P11362 142-365): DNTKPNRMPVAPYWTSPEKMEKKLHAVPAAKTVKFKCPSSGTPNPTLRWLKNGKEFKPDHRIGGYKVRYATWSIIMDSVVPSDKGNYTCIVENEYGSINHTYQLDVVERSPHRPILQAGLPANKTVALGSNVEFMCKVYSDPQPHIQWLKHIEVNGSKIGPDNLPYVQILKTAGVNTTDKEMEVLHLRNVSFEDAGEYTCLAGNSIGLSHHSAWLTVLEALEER

T2: βKlotho-FGF19 (Mus musculus, UniProt Q99N32)
T2 construct: the ectodomain of murine βKlotho (F53 to L995) was expressed in HEK293 cells; FLAG (C); made in house; host or cells: HEK293 (βKlotho ectodomain); E. coli (FGF19)
T2 sequence (Q99N32 53-995): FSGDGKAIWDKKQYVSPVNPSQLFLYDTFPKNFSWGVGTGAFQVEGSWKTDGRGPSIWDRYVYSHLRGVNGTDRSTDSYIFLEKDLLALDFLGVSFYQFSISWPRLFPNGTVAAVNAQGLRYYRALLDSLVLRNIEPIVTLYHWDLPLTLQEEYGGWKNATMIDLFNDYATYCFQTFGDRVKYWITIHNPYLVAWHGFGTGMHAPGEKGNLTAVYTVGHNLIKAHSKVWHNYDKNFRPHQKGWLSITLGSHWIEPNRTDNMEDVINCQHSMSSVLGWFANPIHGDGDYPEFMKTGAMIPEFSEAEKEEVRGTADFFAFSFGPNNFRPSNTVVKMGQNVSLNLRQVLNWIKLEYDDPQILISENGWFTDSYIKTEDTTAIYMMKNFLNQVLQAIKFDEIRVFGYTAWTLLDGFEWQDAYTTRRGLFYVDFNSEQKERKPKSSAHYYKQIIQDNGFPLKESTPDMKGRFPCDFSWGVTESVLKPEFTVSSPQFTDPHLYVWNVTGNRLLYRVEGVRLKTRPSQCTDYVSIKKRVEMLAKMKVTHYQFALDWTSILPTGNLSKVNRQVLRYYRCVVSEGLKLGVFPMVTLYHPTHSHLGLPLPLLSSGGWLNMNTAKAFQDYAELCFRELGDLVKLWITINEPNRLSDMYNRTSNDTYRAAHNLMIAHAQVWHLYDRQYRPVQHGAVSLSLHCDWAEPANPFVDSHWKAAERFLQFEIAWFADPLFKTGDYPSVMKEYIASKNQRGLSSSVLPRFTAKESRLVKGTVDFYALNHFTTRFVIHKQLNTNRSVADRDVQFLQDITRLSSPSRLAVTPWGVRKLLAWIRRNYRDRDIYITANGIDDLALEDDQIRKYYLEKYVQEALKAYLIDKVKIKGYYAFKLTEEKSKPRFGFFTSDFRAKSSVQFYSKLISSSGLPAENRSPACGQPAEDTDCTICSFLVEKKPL


Tests used:
FGFR1c ectodomain = biological target: T1, FGFR1c ectodomain; assay: SPR: FGFR1c ectodomain passed over immobilized FGF23; assay type: binding
Method: Surface plasmon resonance (SPR) spectroscopy experiments were performed on a Biacore 2000 instrument (Biacore AB), and FGF23-FGFR1c-Klotho interactions were studied at 25° C. in HBS-EP buffer (10 mM HEPES-NaOH, pH 7.4, 150 mM NaCl, 3 mM EDTA, 0.005% (v/v) polysorbate 20). Proteins were immobilized by amine coupling on flow channels of research grade CM5 chips (Biacore AB). Proteins were injected over a CM5 chip at a flow rate of 50 μl min^−1, and at the end of each protein injection (180 s), HBS-EP buffer (50 μl min^−1) was flowed over the chip to monitor dissociation for 180 s. The chip surface was then regenerated by injecting 50 μl of 2.0 M NaCl in 10 mM sodium acetate, pH 4.5. To control for nonspecific binding in experiments where Klotho ectodomain was immobilized on the chip, β-glucuronidase was coupled to the control flow channel of the chip (˜26-32 fmole/mm^2). […] The data were processed with BiaEvaluation software (Biacore AB). For each protein injection over a Klotho chip, the nonspecific responses from the β-glucuronidase control flow channel were subtracted from the responses recorded for the Klotho flow channel. Similarly, for each protein injection over a FGF chip, the nonspecific responses from the FHF1B control flow channel were subtracted from the responses recorded for the FGF flow channel. […]

βKlotho-FGF19 = biological target: T2, βKlotho-FGF19; assay: SPR specificity: βKlotho binding to immobilized FGF19^23-216; set-up: species or system murine βKlotho, human FGF19; conditions: molar ratio of 2:1 to βKlotho

Row | binding of FGF23 to FGFR1c ectodomain alone (FGFR1c ectodomain) | Molecule | inhibition of βKlotho binding to immobilized FGF19 (βKlotho-FGF19)
1 | poor binding | FGF23^28-251: human FGF23 (A28 to I251), bioactive full-length ligand expressed in E. coli (protein, listed as Homo sapiens) ASPLLGSSWGGLIHLYTATARNSYHLQIHKNGHVDGAPHQTIYSALMIRSEDAGFVVITGVMSRRYLCMDFRGNIFGSHYFDPENCRFQHQTLENGYDVYHSPQYHFLVSLGRAKRAFLPGMNPPPYSQFLSRRNEIPLIHFNTPIPRRHTRSAEDDSERDPLNVLKPRARMTPAPASCSQELPSAEDNSPMASDPLGVVRGGRVNTHAGGTGPEGCRPFAKFI | –
2 | – | FGF23^180-251: 72-amino acid C-terminal tail of human FGF23 (S180 to I251), expressed in E. coli (protein, listed as Homo sapiens) SAEDDSERDPLNVLKPRARMTPAPASCSQELPSAEDNSPMASDPLGVVRGGRVNTHAGGTGPEGCRPFAKFI | failed to inhibit; also recorded: no inhibition
